Reference: IntAct's records for PubMed 22578008

B1: Laforin (Mus musculus), Q9WUA5 (parent)
chain: MLFRFGVVVPPAVAGARQELLLAGSRPELGRWEPHGAVRLRPAGTAAGAAALALQEPGLWLAEVELEAYEEAGGAEPGRVDTFWYKFLQREPGGELHWEGNGPHHDRCCTYNEDNLVDGVYCLPVGHWIEATGHTNEMKHTTDFYFNIAGHQAMHYSRILPNIWLGSCPRQLEHVTIKLKHELGVTAVMNFQTEWDIIQNSSGCNRYPEPMTPDTMMKLYKEEGLSYIWMPTPDMSTEGRVQMLPQAVCLLHALLENGHTVYVHCNAGVGRSTAAVCGWLHYVIGWNLRKVQYFIMAKRPAVYIDEDALAQAQQDFSQKFGKVHSSICAL
partner: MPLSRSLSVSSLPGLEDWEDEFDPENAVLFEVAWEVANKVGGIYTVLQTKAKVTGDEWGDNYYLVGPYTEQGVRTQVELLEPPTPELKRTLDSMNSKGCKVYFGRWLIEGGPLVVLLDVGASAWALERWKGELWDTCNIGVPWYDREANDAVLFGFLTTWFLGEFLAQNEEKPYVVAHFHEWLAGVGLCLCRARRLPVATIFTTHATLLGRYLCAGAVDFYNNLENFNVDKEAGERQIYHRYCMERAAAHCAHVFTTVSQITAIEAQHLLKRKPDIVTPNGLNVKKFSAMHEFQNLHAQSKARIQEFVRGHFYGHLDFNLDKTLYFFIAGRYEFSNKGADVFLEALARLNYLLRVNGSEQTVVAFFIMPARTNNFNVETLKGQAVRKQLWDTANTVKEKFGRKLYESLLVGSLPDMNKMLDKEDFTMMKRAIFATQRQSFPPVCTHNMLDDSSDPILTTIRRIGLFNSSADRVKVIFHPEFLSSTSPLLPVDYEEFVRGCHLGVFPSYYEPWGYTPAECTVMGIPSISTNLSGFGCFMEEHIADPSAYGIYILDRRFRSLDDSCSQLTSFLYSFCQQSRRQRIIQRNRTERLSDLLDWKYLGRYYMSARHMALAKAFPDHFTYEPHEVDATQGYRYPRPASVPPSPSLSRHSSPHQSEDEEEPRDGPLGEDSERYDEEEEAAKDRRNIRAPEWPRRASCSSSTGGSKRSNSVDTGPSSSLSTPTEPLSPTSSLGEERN
B2: E3 ubiquitin-protein ligase NHLRC1 (Homo sapiens), Q6VVB1 (parent)
chain: MAAEASESGPALHELMREAEISLLECKVCFEKFGHRQQRRPRNLSCGHVVCLACVAALAHPRTLALECPFCRRACRGCDTSDCLPVLHLIELLGSALRQSPAAHRAAPSAPGALTCHHTFGGWGTLVNPTGLALCPKTGRVVVVHDGRRRVKIFDSGGGCAHQFGEKGDAAQDIRYPVDVTITNDCHVVVTDAGDRSIKVFDFFGQIKLVIGGQFSLPWGVETTPQNGIVVTDAEAGSLHLLDVDFAEGVLRRTERLQAHLCNPRGVAVSWLTGAIAVLEHPLALGTGVCSTRVKVFSSSMQLVGQVDTFGLSLYFPSKITASAVTFDHQGNVIVADTSGPAILCLGKPEEFPVPKPMVTHGLSHPVALTFTKENSLLVLDTASHSIKVYKVDWG
partner: B1 chain

Variants of: B1
Settings: with gys1_mouse Gys1, Q9Z1E4

Row | effect of a mutation on the interaction | Variant
1 | increasing interaction | C265S

Variants of: B2
Settings: with epm2a_mouse Epm2a

Row | effect of a mutation on the interaction | Variant
2 | decreasing interaction | L87P

Variants of: B2
Settings: with epm2a_mouse Epm2a
Remark: another data set of the same source

Row | effect of a mutation on the interaction | Variant
3 | disrupting interaction | D146N

Variants of: B2
Settings: with epm2a_mouse Epm2a
Remark: another data set of the same source

Row | effect of a mutation on the interaction | Variant
4 | decreasing interaction | Q302P

Variants of: B2
Settings: with epm2a_mouse Epm2a
Remark: another data set of the same source

Row | effect of a mutation on the interaction | Variant
5 | disrupting interaction | I198N

Variants of: B2
Settings: with epm2a_mouse Epm2a
Remark: another data set of the same source

Row | effect of a mutation on the interaction | Variant
6 | disrupting interaction | E280K

Variants of: B2
Settings: with epm2a_mouse Epm2a
Remark: another data set of the same source

Row | effect of a mutation on the interaction | Variant
7 | decreasing interaction | C26S

Variants of: B2
Settings: with epm2a_mouse Epm2a
Remark: another data set of the same source

Row | effect of a mutation on the interaction | Variant
8 | disrupting interaction | D233A

Variants of: B2
Settings: with epm2a_mouse Epm2a
Remark: another data set of the same source

Row | effect of a mutation on the interaction | Variant
9 | disrupting interaction | P264H
